We go through 25 sequences from the supplement of paper PMC9233669.

Fewer inactive variants are shown than the library holds.

One data set deals with biotinyl-Val-oxazolone. The data set can be described thus: self-aminoacylation, catalytic enhancement (BVO) (fold over background); higher = more active; k-Seq, kA / k0A0; sequences stand for … in GGGAAUGGAUCCACAUCUACGAAUUC…UUCACUGCAGACUUGACGAAGCUG
An outline of the steps: (§1)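 Mutagenized RNA pools (0.43 μM; 21-nt variable region) were treated with 2–1250 μM of each biotinyl-aminoacyl-oxazolone. Conditions were 50 μL HEPES/NaCl/KCl/MgCl2/CaCl2 buffer, 5% acetonitrile, pH 6.9–7.0, room temperature, 90 minutes. Catalytic enhancement, the median kA relative to the uncatalyzed rate, was derived from streptavidin capture, qPCR and Illumina sequencing.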

The subject of a further data set is biotinyl-Trp-oxazolone. As to the kind of experiment: self-aminoacylation, catalytic enhancement (BWO) (fold over background); higher = more active; k-Seq, kA / k0A0; sequences stand for … in GGGAAUGGAUCCACAUCUACGAAUUC…UUCACUGCAGACUUGACGAAGCUG
In outline: as §1

A further data set relates to biotinyl-Met-oxazolone. The data set can be described thus: self-aminoacylation, catalytic enhancement (BMO) (fold over background); higher = more active; k-Seq, kA / k0A0; sequences stand for … in GGGAAUGGAUCCACAUCUACGAAUUC…UUCACUGCAGACUUGACGAAGCUG
An outline of the steps:
as §1

The next data set has as its system biotinyl-Phe-oxazolone. The data set can be described thus: self-aminoacylation, catalytic enhancement (BFO) (fold over background); higher = more active; k-Seq, kA / k0A0; sequences stand for … in GGGAAUGGAUCCACAUCUACGAAUUC…UUCACUGCAGACUUGACGAAGCUG
An outline of the steps: as §1

Another data set has as its system biotinyl-Leu-oxazolone. The data set can be described thus: self-aminoacylation, catalytic enhancement (BLO) (fold over background); higher = more active; k-Seq, kA / k0A0; sequences stand for … in GGGAAUGGAUCCACAUCUACGAAUUC…UUCACUGCAGACUUGACGAAGCUG
In outline:
as §1

A further data set relates to biotinyl-Ile-oxazolone. As to the kind of experiment: self-aminoacylation, catalytic enhancement (BIO) (fold over background); higher = more active; k-Seq, kA / k0A0; sequences stand for … in GGGAAUGGAUCCACAUCUACGAAUUC…UUCACUGCAGACUUGACGAAGCUG
An outline of the steps:
as §1

Take “CCACACUUCAAGCAAUCCGAC [Fam1B.1 aminoacylation ribozyme variant]”: the self-aminoacylation in the data set with biotinyl-Val-oxazolone amounted to 0.703; in the data set with biotinyl-Trp-oxazolone, 0.28; in the data set with biotinyl-Met-oxazolone, 0.516; in the data set on biotinyl-Phe-oxazolone it was 0.729; in the data set with biotinyl-Leu-oxazolone, 0.586; with biotinyl-Ile-oxazolone, 0.612.
As for “CUAUUUCAAACAAUCCGUCUG [Fam1A.1 aminoacylation ribozyme variant]”, the self-aminoacylation in the data set with biotinyl-Val-oxazolone is 0.735; with biotinyl-Trp-oxazolone it was 0.595; with biotinyl-Met-oxazolone, 0.818; in the data set with biotinyl-Phe-oxazolone, 0.946; with biotinyl-Leu-oxazolone it was 0.715; in the data set with biotinyl-Ile-oxazolone, 0.826.
“AUUACCCUGGUCCUCGAGUAA [Fam2.1 aminoacylation ribozyme variant]”: the self-aminoacylation was 1.36 with biotinyl-Val-oxazolone; 1.64 in the data set with biotinyl-Trp-oxazolone; 0.966 in the data set on biotinyl-Met-oxazolone; 0.542 with biotinyl-Phe-oxazolone; 1.33 in the data set on biotinyl-Leu-oxazolone; 1.35 in the data set with biotinyl-Ile-oxazolone.
In the case of “CGACUUCAAAGAAUCGGUCUG [Fam1A.1 aminoacylation ribozyme variant]”, the self-aminoacylation is 1.3 in the data set on biotinyl-Val-oxazolone; 7.38 in the data set with biotinyl-Trp-oxazolone; 1.32 in the data set with biotinyl-Met-oxazolone; 9.34 in the data set on biotinyl-Phe-oxazolone; 1.66 in the data set with biotinyl-Leu-oxazolone; 1.31 with biotinyl-Ile-oxazolone.
Take “AAGCUUGCUAAUAGUCGCAAC [Fam3.1 aminoacylation ribozyme variant]”: the self-aminoacylation in the data set with biotinyl-Val-oxazolone was 1.24; in the data set with biotinyl-Trp-oxazolone it was 1.32; with biotinyl-Met-oxazolone it was 1.28; with biotinyl-Phe-oxazolone, 2.11; in the data set with biotinyl-Leu-oxazolone, 1.44; in the data set on biotinyl-Ile-oxazolone, 1.86.
As to “CUACUUCAAACAAUCGAUCAG [Fam1A.1 aminoacylation ribozyme variant]”, the self-aminoacylation with biotinyl-Val-oxazolone turned out to be 0.654; with biotinyl-Trp-oxazolone, 0.617; in the data set on biotinyl-Met-oxazolone, 0.497; in the data set on biotinyl-Phe-oxazolone it was 1.15; with biotinyl-Leu-oxazolone, 0.659; in the data set on biotinyl-Ile-oxazolone, 0.554.
Turning to “AAUACCCUGGGCAUCGAGUGA [Fam2.1 aminoacylation ribozyme variant]”, the self-aminoacylation turned out to be 2.29 with biotinyl-Val-oxazolone; 3.44 in the data set with biotinyl-Trp-oxazolone; 3.75 with biotinyl-Met-oxazolone; 8.76 in the data set with biotinyl-Phe-oxazolone; 3.79 with biotinyl-Leu-oxazolone; 1.8 in the data set on biotinyl-Ile-oxazolone.
As to “AGGUUUGCUAAUAGUCGUAAG [Fam3.1 aminoacylation ribozyme variant]”, the self-aminoacylation with biotinyl-Val-oxazolone stood at 1.08; in the data set on biotinyl-Trp-oxazolone, 7.24; in the data set on biotinyl-Met-oxazolone, 1.23; in the data set with biotinyl-Phe-oxazolone, 29.2; with biotinyl-Leu-oxazolone, 1.1; in the data set on biotinyl-Ile-oxazolone, 1.22.
As for “AUUACCGUGGUCAUCGACUGA [Fam2.1 aminoacylation ribozyme variant]”, the self-aminoacylation in the data set with biotinyl-Val-oxazolone was 1.11; in the data set with biotinyl-Trp-oxazolone, 0.507; in the data set with biotinyl-Met-oxazolone, 0.911; with biotinyl-Phe-oxazolone it was 0.518; in the data set with biotinyl-Leu-oxazolone, 0.742; in the data set on biotinyl-Ile-oxazolone it was 1.06.
As to “CUACUUCAAACAUUCGGUGUG [Fam1A.1 aminoacylation ribozyme variant]”, the self-aminoacylation worked out at 1.51 in the data set on biotinyl-Val-oxazolone; 1.39 with biotinyl-Trp-oxazolone; 1.82 in the data set with biotinyl-Met-oxazolone; 8.08 in the data set with biotinyl-Phe-oxazolone; 1.73 with biotinyl-Leu-oxazolone; 1.4 with biotinyl-Ile-oxazolone.
As for “AAUCACCUCGGUCAUCGGGUG [Fam2.2 aminoacylation ribozyme variant]”, the self-aminoacylation with biotinyl-Val-oxazolone is 5.23; with biotinyl-Trp-oxazolone, 7.61; with biotinyl-Met-oxazolone it was 4.76; in the data set with biotinyl-Phe-oxazolone, 31.2; in the data set with biotinyl-Leu-oxazolone it was 4.99; with biotinyl-Ile-oxazolone, 4.07.
Consider “ACUCACCUUGGUCAUCGGGUG [Fam2.2 aminoacylation ribozyme variant]”, for which the self-aminoacylation in the data set on biotinyl-Val-oxazolone stood at 5.78; in the data set with biotinyl-Trp-oxazolone, 9.04; with biotinyl-Met-oxazolone, 6.92; in the data set on biotinyl-Phe-oxazolone it was 37.8; in the data set on biotinyl-Leu-oxazolone, 7.85; with biotinyl-Ile-oxazolone, 4.9.
“AUUACCCUGGUUAUCGAGUUA [Fam2.1 aminoacylation ribozyme variant]”: the self-aminoacylation in the data set on biotinyl-Val-oxazolone came out at 0.885; in the data set on biotinyl-Trp-oxazolone it was 0.319; in the data set with biotinyl-Met-oxazolone, 1.15; in the data set on biotinyl-Phe-oxazolone, 0.868; with biotinyl-Leu-oxazolone, 1.01; in the data set on biotinyl-Ile-oxazolone, 0.945.
Consider “CCACGCUUCAAGCAAUCGGUU [Fam1B.1 aminoacylation ribozyme variant]”, for which the self-aminoacylation worked out at 1.93 in the data set with biotinyl-Val-oxazolone; 16.7 with biotinyl-Trp-oxazolone; 1.44 in the data set with biotinyl-Met-oxazolone; 20 in the data set on biotinyl-Phe-oxazolone; 1.92 in the data set on biotinyl-Leu-oxazolone; 1.33 in the data set on biotinyl-Ile-oxazolone.
With “AUUUCCCUGGUCAUCCAGUGA [Fam2.1 aminoacylation ribozyme variant]”, the self-aminoacylation in the data set with biotinyl-Val-oxazolone was 4.5; in the data set with biotinyl-Trp-oxazolone, 9.93; in the data set with biotinyl-Met-oxazolone, 7.52; with biotinyl-Phe-oxazolone, 55.4; in the data set on biotinyl-Leu-oxazolone, 8.35; with biotinyl-Ile-oxazolone, 4.3.
As to “CCACACUUCAAACAUUCGGUC [Fam1B.1 aminoacylation ribozyme variant]”, the self-aminoacylation in the data set on biotinyl-Val-oxazolone came out at 1.4; in the data set on biotinyl-Trp-oxazolone, 1.32; in the data set on biotinyl-Met-oxazolone it was 1.47; in the data set with biotinyl-Phe-oxazolone, 0.837; in the data set with biotinyl-Leu-oxazolone, 1.45; in the data set on biotinyl-Ile-oxazolone it was 1.49.
For the sequence “AUUACCCUGGCCAUCGAGUGA [Fam2.1 aminoacylation ribozyme variant]”, the self-aminoacylation in the data set on biotinyl-Val-oxazolone stood at 2.24; in the data set with biotinyl-Trp-oxazolone it was 3.94; with biotinyl-Met-oxazolone, 3.27; in the data set with biotinyl-Phe-oxazolone, 11.7; with biotinyl-Leu-oxazolone, 3.27; with biotinyl-Ile-oxazolone, 2.05.
For the sequence “AUUCACCGAGAUCAUCGGGUG [Fam2.2 aminoacylation ribozyme variant]”, the self-aminoacylation turned out to be 4.27 in the data set with biotinyl-Val-oxazolone; 7.09 with biotinyl-Trp-oxazolone; 6.77 with biotinyl-Met-oxazolone; 49.8 with biotinyl-Phe-oxazolone; 8.53 in the data set on biotinyl-Leu-oxazolone; 3.88 with biotinyl-Ile-oxazolone.
“CUACUUGAUACAAUCGGUCUG [Fam1A.1 aminoacylation ribozyme variant]”: the self-aminoacylation in the data set with biotinyl-Val-oxazolone is 0.776; in the data set on biotinyl-Trp-oxazolone it was 0.517; with biotinyl-Met-oxazolone, 0.735; with biotinyl-Phe-oxazolone it was 0.52; in the data set on biotinyl-Leu-oxazolone, 0.734; in the data set with biotinyl-Ile-oxazolone, 0.753.
For the sequence “AUUACCCUGCUCAACGAGUGA [Fam2.1 aminoacylation ribozyme variant]”, the self-aminoacylation in the data set on biotinyl-Val-oxazolone amounted to 3.25; in the data set on biotinyl-Trp-oxazolone it was 6.69; in the data set with biotinyl-Met-oxazolone, 5.64; with biotinyl-Phe-oxazolone it was 24.7; with biotinyl-Leu-oxazolone, 5.59; with biotinyl-Ile-oxazolone, 2.33.
As to “AUUACCUUGGUCAUCGAGAGA [Fam2.1 aminoacylation ribozyme variant]”, the self-aminoacylation stood at 1.19 with biotinyl-Val-oxazolone; 0.946 in the data set with biotinyl-Trp-oxazolone; 0.957 in the data set on biotinyl-Met-oxazolone; 0.809 in the data set with biotinyl-Phe-oxazolone; 0.907 in the data set on biotinyl-Leu-oxazolone; 0.924 in the data set on biotinyl-Ile-oxazolone.
“UUUACCCCGGUCAUCGAGUGA [Fam2.1 aminoacylation ribozyme variant]”: the self-aminoacylation was 3.64 in the data set on biotinyl-Val-oxazolone; 6.13 in the data set on biotinyl-Trp-oxazolone; 6.14 with biotinyl-Met-oxazolone; 35.5 with biotinyl-Phe-oxazolone; 6.37 with biotinyl-Leu-oxazolone; 3.31 in the data set on biotinyl-Ile-oxazolone.
As for “AUUACCCUGGUCAUUGAGUGA [Fam2.1 aminoacylation ribozyme variant]”, the self-aminoacylation stood at 4.49 in the data set with biotinyl-Val-oxazolone; 10.8 in the data set on biotinyl-Trp-oxazolone; 9.01 in the data set on biotinyl-Met-oxazolone; 44.1 in the data set on biotinyl-Phe-oxazolone; 8.58 in the data set with biotinyl-Leu-oxazolone; 4.27 in the data set on biotinyl-Ile-oxazolone.
Take “AAGUUUGCUAAGAGUCGAAAG [Fam3.1 aminoacylation ribozyme variant]”: the self-aminoacylation in the data set on biotinyl-Val-oxazolone amounted to 0.785; in the data set with biotinyl-Trp-oxazolone, 0.757; in the data set on biotinyl-Met-oxazolone, 0.817; in the data set with biotinyl-Phe-oxazolone it was 1.3; with biotinyl-Leu-oxazolone, 0.602; with biotinyl-Ile-oxazolone, 0.804.
In the case of “AUCUCCCUGGUCAUCGAGUGA [Fam2.1 aminoacylation ribozyme variant]”, the self-aminoacylation worked out at 4.7 in the data set on biotinyl-Val-oxazolone; 10.2 with biotinyl-Trp-oxazolone; 9.05 in the data set with biotinyl-Met-oxazolone; 27.2 with biotinyl-Phe-oxazolone; 9.06 in the data set with biotinyl-Leu-oxazolone; 4.57 in the data set on biotinyl-Ile-oxazolone.
